US20260151519A1 (AKTIS ONCOLOGY, published 2026)
Bridges are numbered along the chain shown (N, C = ends). Primed or numbered codes have the meaning given here. Where no end group is shown, it is not given here. [ ]: non-standard residue; d: D form. The star is where a group is joined. DOTA = O=C(O)CN1CCN(CC(=O)O)CCN(CC(=O)*)CCN(CC(=O)O)CC1; Biotin = O=C1N[C@H]2[C@H](CS[C@H]2CCCCC(=O)*)N1; Lys(Me3) = C[N+](C)(C)CCCC[C@H](N)C(=O)O; Arg(Me2s) = CN=C(NC)NCCC[C@H](N)C(=O)O; PEG4″ = 4(ethylene glycol); PEG4′ = not defined here

How the values were obtained:
[1] = biological target: T1, Human Nectin-4 (human, UniProt Q96NY8 32-349, limits assumed); experiment: Table 2B (DELFIA or SPR)
T1 construct: Protein immobilised on the SPR chip; also called target protein
T1 sequence: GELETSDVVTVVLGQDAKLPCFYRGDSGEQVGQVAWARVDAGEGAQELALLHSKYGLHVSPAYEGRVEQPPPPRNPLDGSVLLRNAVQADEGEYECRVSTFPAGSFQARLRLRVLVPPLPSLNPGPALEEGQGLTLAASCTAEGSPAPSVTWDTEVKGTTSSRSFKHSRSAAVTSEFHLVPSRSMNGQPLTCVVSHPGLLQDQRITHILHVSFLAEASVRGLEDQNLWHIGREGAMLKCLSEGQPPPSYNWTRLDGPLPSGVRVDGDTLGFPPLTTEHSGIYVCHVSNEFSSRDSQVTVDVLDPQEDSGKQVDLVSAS

[2] = biological target: T1, Human Nectin-4; experiment: SPR, Biacore, 1:1 model, 25 C
Protocol: (§1) Peptide binding affinity to the target protein was measured by SPR using an SPR machine, such as a Biacore T200 instrument. The target protein was covalently coupled to a Biacore chip surface using free amine-coupling chemistry (NHS/EDC) and all uncoupled sites were blocked with ethanolamine. Free peptides were flowed over the target protein surface in increasing concentrations to measure association (Kₐ, 1/Ms⁻¹)) and dissociation (Kd, s⁻¹) to calculate the dissociation equilibrium constant (KD) using an appropriate binding model (see, e.g., Nikolas Stroth, J Biol Methods. 2016; 3 (1)).
(§2) In FIGS. 1A, 1B, 2A, and 2B, lines on graphs are labeled from top to bottom, beginning with letter “a,” and the corresponding concentration is noted to the right of the figure.

[3] = biological target: T2, Murine Nectin-4 (mouse, UniProt Q8R007 31-347, limits assumed); experiment: SPR, Biacore, 1:1 model, 25 C
T2 construct: Protein immobilised on the SPR chip; also called mouse Nectin-4
T2 sequence: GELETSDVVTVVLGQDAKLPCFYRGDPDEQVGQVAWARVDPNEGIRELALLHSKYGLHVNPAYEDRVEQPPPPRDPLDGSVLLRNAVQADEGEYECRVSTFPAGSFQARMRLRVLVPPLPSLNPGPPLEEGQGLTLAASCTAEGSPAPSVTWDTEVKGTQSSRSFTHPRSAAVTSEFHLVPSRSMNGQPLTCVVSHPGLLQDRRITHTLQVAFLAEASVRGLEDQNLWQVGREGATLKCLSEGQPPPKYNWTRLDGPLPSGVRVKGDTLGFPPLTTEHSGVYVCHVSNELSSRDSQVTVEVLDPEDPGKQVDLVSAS
Protocol: as §1, §2

[4] = biological target: T3, Human Nectin-4 expressed on cells (human, UniProt Q96NY8 32-510); experiment: radioligand binding, 177Lu-labelled compound, HT-1376 cells
T3 construct: Endogenous on HT-1376 cells; also called endogenous Nectin-4 on HT-1376 cells; cell surface Nectin-4
T3 sequence: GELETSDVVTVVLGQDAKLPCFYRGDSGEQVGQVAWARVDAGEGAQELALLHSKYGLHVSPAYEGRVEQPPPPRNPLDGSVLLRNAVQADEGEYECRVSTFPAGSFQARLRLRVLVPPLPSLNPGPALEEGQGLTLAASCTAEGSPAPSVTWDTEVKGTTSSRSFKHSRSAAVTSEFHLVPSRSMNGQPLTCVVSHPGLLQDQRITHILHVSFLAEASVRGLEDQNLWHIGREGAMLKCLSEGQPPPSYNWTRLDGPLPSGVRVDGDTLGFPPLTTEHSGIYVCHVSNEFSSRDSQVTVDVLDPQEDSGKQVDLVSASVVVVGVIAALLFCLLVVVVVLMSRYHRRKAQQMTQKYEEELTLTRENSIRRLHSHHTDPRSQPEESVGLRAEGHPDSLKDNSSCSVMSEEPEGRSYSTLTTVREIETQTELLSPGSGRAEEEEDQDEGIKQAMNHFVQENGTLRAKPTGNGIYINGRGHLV
Protocol: On the day of assay, culture medium was removed and PBS was added to cells. Association kinetics were measured at three concentrations of radioligand, and this was performed by the addition of lutetium-177 radioconjugates to cells at various time points from 1 to 60 minutes.

[5] = biological target: T3, Human Nectin-4 expressed on cells; experiment: DELFIA whole-cell competition against a europium-chelate miniprotein
Protocol: A whole cell binding assay was used to estimate the equilibrium binding affinity (KD) or binding inhibition constant (Kᵢ) of miniprotein ligands to cells expressing a target of interest. Cells were dispensed into a 384-well plate and incubated at 37° C. in 5% CO₂ overnight. The next day cells were gently washed once in assay buffer prior to addition of europium chelated ligand. […] For Kᵢ determination, a single concentration (KD equivalent concentration) of europium-chelate miniprotein was added to each well followed immediately by the addition of unconjugated competing ligand over 12 different concentrations ranging from 100 times below and above expected Kᵢ values as before. […] Cells were then washed three times at room temperature with 1×PBS followed by the addition of 2 M HCl and incubated for two h at 37° C. Following this step, 2 M NaOH and fluorescent inducer solution were added to each well and incubated for 30 minutes at room temperature according to the manufacturer's protocol (Perkin-ELMER DELFIA assay). Plates were read on an Envision plate reader and a curve-fitting model was applied to estimate KD and Kᵢ values using GraphPad Prism software.

[6] = biological target: T1, Human Nectin-4; experiment: SPR, Biacore T200, target immobilised, 1:1 model
Protocol: Surface plasmon resonance (SPR) analyses were performed using Biacore T200 (GE Healthcare). Target protein (“ligand”) was immobilized to a CM5 Series S sensor chip (Cytiva) using amine-coupling chemistry. Running buffer was 0.05% surfactant P20 in HEPES buffered saline (HBS-P), pH 7.4 (Cytiva). Immobilization was performed at 25° C. Carboxyl groups in each flow cell were activated using a 1:1 mixture of 0.4 M 1-ethyl-3-(3-dimethylaminopropyl)-carbodiimide in water (EDC) and 0.1 M N-hydroxysuccinimide in water (NHS) for 7 minutes. The ligand was prepared in 10 mM sodium acetate pH 5 (Cytiva). Pulsatile injections were made to target a specific immobilization level. Any remaining amine-reactive esters on the chip surface were blocked with a 7-minute injection of 1 M ethanolamine, pH 8.5. Three 10-second pulses of 50 mM sodium hydroxide were then made to remove any unbound ligand. Reference cells were modified using amine coupling chemistry, omitting ligand injection.
Increase in signal (RU) is proportional to an increase in binding events between the analyte and ligand surface. The injection was then stopped, and dissociation was measured. […] Measured association (kₐ, 1/Ms⁻¹) and dissociation (kd, s⁻¹) were fit to a 1:1 binding model to calculate a dissociation equilibrium constant, KD(M) for each analyte.

For Ac-CEYDEEFFAGLKRLRGGDICYYIKKKFDKVPDLCIEEILDKLGC-OH (designed binder, disulfide 1-34, 20-44) [C9], the Kd [1] was 7.5 nM, the Kd [2] was 7.5 nM and the koff [2] was 0.0227 s⁻¹. For the same binder, the Kd [3] was 7.83 nM and the koff [3] was 0.0213 s⁻¹.

For {DOTA-PEG4″}-CEYDEEFFAGLKRLRGGDICYYIKKKFDKVPDLCIEEILDKLGC-OH (designed binder, disulfide 1-34, 20-44) [C12], the Kd [1] was 10.5 nM, the koff [2] was 0.017 s⁻¹ and the Kd [3] was 2.94 nM. It also gave a koff [3] of 0.0262 s⁻¹.

Binder {DOTA-PEG4″}-CEYDEEFFAGLKRLRGGDICYYIKKKFDKVPDLCIEEILDKLGC-OH (designed binder, disulfide 1-34, 20-44; also: 138La complex of DOTA) [C91] has a Kd [2] of 17.9 nM, a koff [2] of 0.0297 s⁻¹ and a Kd [3] of 24.6 nM. For the same binder, the koff [3] was 0.0282 s⁻¹.

{DOTA-PEG4″}-CEYDEEFFTALKRLRGGDICYYIQASFQYLPGLCIEEILDNLGCS (designed binder, disulfide 1-34, 20-44; also: 177Lu-labelled in radioligand assay) [C109] showed a Kd [4] of 8.72 nM.

For {DOTA-PEG4″}-CEYDEEFFTALKRLRGGDICYYIQAKFQYLPKLCIEEILDNLGCS (designed binder, disulfide 1-34, 20-44; also: 177Lu-labelled in the radioligand assay) [C117], the Kd [4] was 2.64 nM.

With {Biotin-PEG4″}-CEYDEEFFTALARLRGADICQYIQA[Lys(Me3)]FQYLPALCIEEILDNLGCS-OH (designed binder, disulfide 1-34, 20-44) [C252] the Ki [5] was 0.76 nM.

With {Biotin-PEG4″}-CDYDEQFFTALKRLRGGDICEYIQA[Lys(Me3)]FQYLPGECIEEILDNLGCS-OH (designed binder, disulfide 1-34, 20-44) [C255] the Ki [5] was 0.66 nM.

Work on {Biotin-PEG4″}-CDYDEQFFTALKRLRGADICEYIQA[Lys(Me3)]FQYLPGECIEEILDNLGCS-OH (designed binder, disulfide 1-34, 20-44) [C257] yielded a Ki [5] of 0.66 nM.

For {Biotin-PEG4″}-CEYDEQFFTALARLRGADICEYIQA[Lys(Me3)]FQYLPGLCIEEILDNLGCS-OH (designed binder, disulfide 1-34, 20-44) [C262], the Ki [5] was 1.04 nM.

In the case of {Biotin-PEG4″}-CEYDEQFFTALARLRGGDICEYIQARFQYLPGLCIEEILDNLGCS (designed binder, disulfide 1-34, 20-44) [C264], the Kd [6] is reported as 0.476 nM and the Ki [5] is reported as 0.53 nM.

In the case of {Biotin-PEG4″}-CEYDEQFFTALARLRGGDICEYIQA[Arg(Me2s)]FQYLPGLCIEEILDNLGCS (designed binder, disulfide 1-34, 20-44) [C267], the Kd [6] is reported as 0.586 nM and the Ki [5] is reported as 0.76 nM.

With {Biotin-PEG4″}-CEYDEQFFTALARLRGADICEYIQARFQYLPGLCIEEILDNLGCS-OH (designed binder, disulfide 1-34, 20-44) [C280] the Ki [5] was 0.54 nM.

Binder {DOTA-PEG4′}-CEYDEEFFTALKRLRGGDICYYIKKKFKKVPKLCIEEILDKLGC-NH2 (designed binder, cysteine pairing not given here; also: 177Lu label on DOTA) [C215] has a Kd [4] of 5.01 nM.

Binder {DOTA-PEG4″}-CEYDEEFFTALKRLRGGDICYYIKKKFDYLPKLCIEEILDNLGC-NH2 (designed binder, disulfide 1-34, 20-44; also: 177Lu-labelled in the radioligand assay) [C214] has a Kd [4] of 3.03 nM.

Work on {DOTA-PEG4″}-CEYDEEFFTALKRLRGGDICYYIKKKFKKVPKLCIEEILDKLGC-NH2 (designed binder, disulfide 1-34, 20-44; also: 177Lu-labelled in radioligand assay) [C82] yielded a Kd [4] of 14.1 nM.
